Data from patent US20220031841A1 (ABSCI, published 2022).

Target: T1, Inorganic pyrophosphatase (PPA1) (human, UniProt Q15181 2-289)
T1 construct: The array carries full-length recombinant human proteins expressed in S. cerevisiae; also called Human PPA1
T1 sequence: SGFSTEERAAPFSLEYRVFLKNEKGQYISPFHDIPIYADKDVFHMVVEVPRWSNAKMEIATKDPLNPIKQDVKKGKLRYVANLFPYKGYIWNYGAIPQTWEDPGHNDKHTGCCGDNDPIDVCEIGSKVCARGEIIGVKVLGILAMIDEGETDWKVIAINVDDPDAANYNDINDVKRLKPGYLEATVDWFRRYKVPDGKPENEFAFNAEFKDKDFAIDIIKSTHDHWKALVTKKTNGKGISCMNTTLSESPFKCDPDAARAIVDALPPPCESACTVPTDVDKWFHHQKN
Test: HuProt protein array, antibody at 1 µg/ml, Alexa-647 anti-human IgG Fc; F635 signal as z-score; PPA1 replicate 1
Source text: Large scale protein arrays are versatile and sensitive platforms for antibody specificity evaluation. They can be used for the evaluation of protein binding or affinity reagents that are widely employed in research and clinical applications. The microarray used in our target identification experiment provides the largest number of unique, full-length, individually purified human proteins on a single microscope slide. This allows thousands of interactions to be profiled in a high-throughput manner. The hill-length recombinant proteins are expressed in the yeast S. cerevisiae, purified, and printed on glass slides in duplicate along with a set of control proteins (GST, BSA, histones, IgG, etc.). Such microarray is not restricted to a particular type of surface coating, although the default is glass coated with ultra-thin nitrocellulose film for the non-covalent, yet irreversible, capture of active proteins to the surface. Fourteen Protein arrays were used for the antibody cross-reactivity assay of the samples. […] The antibody-antigen binding score was calculated for each protein represented on the array and expressed as z-scores. […]
Z score is the average Z score of the duplicate spots of a given protein (each protein is printed in duplicate on a HuProt™ array). The Z score of each spot on a given array is calculated according to the equation: […]

- binding result: binds
B1: TMEL1010 (antibody, V domains shown)
VH: QVQLVQSGAEVKKPGASVKVSCKASGYTFSSYGISWVRQAPGQGLEWMGWISAYNGNTNYAKKLQGRVTMTTDTSTSTAYLELRSLRSDDTAVYYCARGDGPFDYWGQGTLVTVSS
VL: EIVMTQSPATLSVSPGERATLSCWASQSVSSSLAWYQQKPGQAPRLLMYGASNRATGIPARFSGSGSGTEFTLTISSLQSEDFAVYYCQQYNKWPPDTFGQGTKLEIKR
notes: It was detected with an anti-human IgG Fc gamma secondary antibody
